Source: patent US8993320B2, “Culture method to obtain and maintain a pure or enriched population of mammalian neural stem cells and/or neural/progenitor cells that are prone to differentiate into oligodendrocyte-lineage cells in vitro” (priority 2011, dated 2015)

B1: PDGF-BB: PDGF family member used to replace PDGF-AA (protein, UniProt P01127 82-190, looked up)
Platelet-derived growth …: SLGSLTIAEPAMIAECKTRTEVFEISRRLIDRTNANFLVWPPCVEVQRCSGCCNNRNVQCRPTQVQLRPVQVRKIEIVRKKPIFKKATVTLEDHLACKCETVAAARPVT
B2: neurotrophin-3 (protein, UniProt P20783 139-257, looked up)
Neurotrophin-3: YAEHKSHRGEYSVCDSESLWVTDKSSAIDIRGHQVTVLGEIKTGNSPVKQYFYETRCKEARPVKNGCRGIDDKHWNSQCKTSQTYVRALTSENNKLVGWRWIRIDTSCVCALSRKIGRT
notes: growth factor

How the values were obtained:
HFSC cells [1] = assay: Expansion of HFSC cells with growth factors and supplements (live cell count); format: cell-based, human; conditions: cell line #2b and cell line #3; same condition except for PDGF-AA
Method: FIG. 4 illustrates the expansion rate of HFSC cells (cell line #2b) in the presence of different combinations of growth factors: (1): 20 ng/ml PDGF-AA+10 ng/ml bFGF; (2): 20 ng/ml PDGF-AA+10 ng/ml bFGF+5 ng/ml NT-3; (3): 20 ng/ml PDGF-AA+10 ng/ml bFGF+10 ng/ml IGF-1; (4): 20 ng/ml PDGF-AA+10 ng/ml bFGF+5 ng/ml NT-3+10 ng/ml IGF-1. The cells were harvested at day 11 of passage 3 (P3D11) and number of live cells in each condition was counted. Then, they were passaged in the same condition that was used at passage 3 at the same cell density. The cells were harvested at day 8 of passage 4 (P4D8) and number of live cells in each condition was counted (these cells were harvested before they became sub-confluent because they started forming spheres). […] Condition (3) was effective at both passages. […] The cells were harvested at day 7 of passage 5 (these cells were harvested before they became sub-confluent because they started forming spheres as they did at passage 4) and number of live cells in each condition was counted. […]

HFSC cells [2] = assay: as above; format: cell-based, human; conditions: 10 ng/ml NT-3 added at passage 17; cell line #2b; effect disappeared after a passage

| Molecule | expansion of cells when replacing PDGF-AA (HFSC cells [1]) | effect on cell growth (HFSC cells [2]) |
| --- | --- | --- |
| B1 | could expand both cell lines | – |
| B2 | – | enhanced the cell growth a little bit |
